Earlier results in publication PMC4101496.

Biological target: Asp14 (UniProt position 14, FGAHADDVEIG)
Assay: kinetics
Settings: WT enzyme under turnover; pH profiles of Zn2+-BshB and Co2+-BshB reported as identical

## N-acetylglucosamine-malate deacetylase (BshB) (Bacillus anthracis (per Table 1 accession; the review says BshB from both B. anthracis and B. cereus (BC1534) has been characterised and does not state which gave the pH profile))
  pKa: 8.5
